Experimental findings from patent publication US20110300066A1 are described below.

The target of this assay is CD20 (human) (UniProt P11836). In words: cell-based or functional assay.
CD20 (human), sequence (P11836 whole entry): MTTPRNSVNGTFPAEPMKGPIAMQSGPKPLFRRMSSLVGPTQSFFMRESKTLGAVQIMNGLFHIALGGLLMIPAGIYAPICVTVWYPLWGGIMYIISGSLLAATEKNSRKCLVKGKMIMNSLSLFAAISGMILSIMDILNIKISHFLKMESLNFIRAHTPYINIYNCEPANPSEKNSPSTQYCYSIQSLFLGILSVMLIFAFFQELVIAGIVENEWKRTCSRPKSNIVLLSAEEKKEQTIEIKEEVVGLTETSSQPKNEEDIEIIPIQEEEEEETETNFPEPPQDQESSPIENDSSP

20-Rap (antibody) showed an in vitro cytotoxicity EC50, Daudi and Ramos cells of 0.0001 µM; an in vitro cytotoxicity EC50, Jeko-1 cells of 20 µM.
